Test results: the supplement of paper PMC7877785
± gives the uncertainty stated by the source.

Assay: self-splicing fitness, log relative to wild type (ln ratio); higher = more splicing; Tetrahymena group I intron in knt gene, E. coli kanamycin selection, DiMSum; sequences stand for … in CUCUCU…GGAGGGAAAAGUUAUCAGGCAUGCACCUGGUAGCUAGUCUUUAAACCAAUAGAUUGCAUCGGUUUAAAAGGCAAGACCGUCAAAUUGCGGGAAAGGGGUCAACAGCCGUUCAGUACCAAGUCUCAGGGGAAACUUUGAGAUGGCCUUGCAAAGGGUAUGGUAAUAAGCUGACGGACAUGGUCCUAACCACGCAGCCAAGUCCUAAGUCAACAGAUCUUCUGUUGAUAUGGAUGCAGUUCACAGACUAAAUGUCGGUCGGGGAAGAUGUAUUCUUCUCAUAAGAUAUAGUCGGACCUCUCCUUAAUGGGAGCUAGCGGAUGAAGUGAUGCAACACUGGAGCCGCUGGGAACUAAUUUGUAUGCGAAAGUAUAUUGAUUAGUUUUGGAGUACUCGUGGUCG
Method in brief: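 Fitness was computed with DiMSum as the error-weighted combination of replicate fold changes, kanamycin versus none, each normalised to wild type. The library randomised all eight intron nucleotides of the P1ex region, with the intron placed in the knt kanamycin-resistance gene on pET-22b(+) in E. coli BL21(DE3). Six replicate transformations were grown overnight at 37°C or 30°C on LB agar with or without 25 μg/mL kanamycin, plus 100 μg/mL carbenicillin, 50 μM IPTG and 0.2% rhamnose. Pooled colonies were amplicon-sequenced on an Illumina HiSeq 2500.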

| Sequence | self-splicing fitness (ln) (30 °C) | self-splicing fitness (ln) (37 °C) |
| --- | --- | --- |
| AGGUAGCAAUAUUACGUCCC | -1.02 ± 0.025 | -0.535 ± 0.042 |
| AGGUAGCAAUAUUACGUCCU | -3.01 ± 0.027 | -2.01 ± 0.041 |
| AGUAAGCAAUAUUACGAAUC | -4.12 ± 0.42 | -2.86 ± 0.34 |
| AGUAAGCAAUAUUACGAAUU | -2.92 ± 0.42 | – |
| AGUAAGCAAUAUUACGACAA | -1.35 ± 0.17 | -0.886 ± 0.17 |
| AGUAAGCAAUAUUACGAGCG | -0.847 ± 0.072 | -0.0455 ± 0.11 |
| AGUAAGCAAUAUUACGAGGC | -2.59 ± 0.34 | – |
| AGUAAGCAAUAUUACGAGGU | -2.56 ± 0.18 | -2.89 ± 0.22 |
| AGUAAGCAAUAUUACGAUAG | -3.75 ± 0.33 | -2.86 ± 0.31 |
| AGUAAGCAAUAUUACGAUGA | -2.3 ± 0.16 | -1.03 ± 0.13 |
| AGUAAGCAAUAUUACGCAGA | -3.22 ± 0.36 | -2.67 ± 0.29 |
| AGUAAGCAAUAUUACGCAUC | -4.12 ± 0.29 | -1.48 ± 0.27 |
| AGUAAGCAAUAUUACGCCGA | -1.31 ± 0.45 | -0.709 ± 0.46 |
| AGUAAGCAAUAUUACGCUGG | -3.89 ± 0.23 | -2.39 ± 0.22 |
| AGUAAGCAAUAUUACGCUUA | -3.07 ± 0.16 | -1.44 ± 0.15 |
| AGUAAGCAAUAUUACGGAGC | -2.93 ± 0.37 | – |
| AGUAAGCAAUAUUACGGGUA | -2.7 ± 0.15 | -1.56 ± 0.13 |
| AGUAAGCAAUAUUACGGUCG | -1.95 ± 0.083 | -0.559 ± 0.087 |
| AGUAAGCAAUAUUACGUACC | -0.632 ± 0.16 | 0.366 ± 0.21 |
| AGUAAGCAAUAUUACGUACG | -1.51 ± 0.11 | 0.135 ± 0.14 |
| AGUAAGCAAUAUUACGUCAA | -3.78 ± 0.21 | -2 ± 0.15 |
| AGUAAGCAAUAUUACGUCGU | -2.12 ± 0.13 | -0.496 ± 0.12 |
| AGUAAGCAAUAUUACGUCUC | -3.31 ± 0.25 | -2.96 ± 0.47 |
| AGUAAGCAAUAUUACGUCUG | -3.21 ± 0.17 | -1.49 ± 0.12 |
| AGUAAGCAAUAUUACGUGCG | -1.27 ± 0.088 | -0.396 ± 0.097 |

| Sequence | self-splicing fitness (ln) (30 °C) | self-splicing fitness (ln) (37 °C) |
| --- | --- | --- |
| AGUAAGCAAUAUUACGUUAG | -1.71 ± 0.33 | – |
| AGUAAGCAAUAUUACGUUGG | -3.59 ± 0.48 | -2.64 ± 0.36 |
| AGUCAGCAAUAUUACGAUUG | -1.38 ± 0.11 | -0.258 ± 0.15 |
| AGUCAGCAAUAUUACGCGAU | -3.56 ± 0.24 | -1.01 ± 0.14 |
| AGUCAGCAAUAUUACGCGGG | -2.8 ± 0.16 | -1.06 ± 0.2 |
| AGUCAGCAAUAUUACGGAGC | -2.57 ± 0.12 | -1.74 ± 0.13 |
| AGUCAGCAAUAUUACGGAGU | -1.63 ± 0.062 | -0.578 ± 0.073 |
| AGUCAGCAAUAUUACGGCAA | -0.287 ± 0.083 | -0.215 ± 0.081 |
| AGUCAGCAAUAUUACGGUAA | -2.02 ± 0.12 | -1.19 ± 0.099 |
| AGUCAGCAAUAUUACGGUUA | -1.15 ± 0.087 | -0.533 ± 0.073 |
| AGUCAGCAAUAUUACGUAAG | -1.61 ± 0.1 | -0.51 ± 0.11 |
| AGUCAGCAAUAUUACGUAUG | -3.48 ± 0.18 | -2.43 ± 0.19 |
| AGUCAGCAAUAUUACGUAUU | -1.08 ± 0.079 | -0.181 ± 0.094 |
| AGUCAGCAAUAUUACGUCCU | -0.258 ± 0.1 | -0.279 ± 0.15 |
| AGUCAGCAAUAUUACGUGAU | -1.52 ± 0.077 | -0.719 ± 0.1 |
| AGUCAGCAAUAUUACGUUAC | -2.88 ± 0.16 | -2.36 ± 0.21 |
| AGUGAGCAAUAUUACGACGC | -1.01 ± 0.2 | -0.737 ± 0.29 |
| AGUGAGCAAUAUUACGAGCU | -2.44 ± 0.23 | -1.07 ± 0.5 |
| AGUGAGCAAUAUUACGCACU | -2.97 ± 0.44 | -2.24 ± 0.38 |
| AGUGAGCAAUAUUACGCAUA | -4.2 ± 0.43 | -2.56 ± 0.29 |
| AGUGAGCAAUAUUACGCGCA | -2.29 ± 0.2 | -2.38 ± 0.2 |
| AGUGAGCAAUAUUACGCGGU | -3.93 ± 0.25 | -3.01 ± 0.23 |
| AGUGAGCAAUAUUACGCUAA | – | -2.09 ± 0.26 |
| AGUGAGCAAUAUUACGGAAU | -3.11 ± 0.18 | -2.16 ± 0.13 |
| AGUGAGCAAUAUUACGGACA | -1.09 ± 0.2 | -1.5 ± 0.27 |

| Sequence | self-splicing fitness (ln) (30 °C) | self-splicing fitness (ln) (37 °C) |
| --- | --- | --- |
| AGUGAGCAAUAUUACGUAAC | -4.68 ± 0.23 | -1.67 ± 0.14 |
| AGUGAGCAAUAUUACGUCGC | -2.66 ± 0.41 | – |
| AGUGAGCAAUAUUACGUGCC | -2.42 ± 0.49 | -1.3 ± 0.38 |
| AGUGAGCAAUAUUACGUUUG | -3.7 ± 0.23 | -2.8 ± 0.24 |
| AGUUAGCAAUAUUACGAAAA | -2.79 ± 0.49 | -1.5 ± 0.32 |
| AGUUAGCAAUAUUACGAACA | -0.687 ± 0.12 | 0.168 ± 0.17 |
| AGUUAGCAAUAUUACGACGG | -0.829 ± 0.15 | -0.189 ± 0.18 |
| AGUUAGCAAUAUUACGAGGG | -4.11 ± 0.38 | -2.06 ± 0.33 |
| AGUUAGCAAUAUUACGCACG | -1.42 ± 0.19 | 0.196 ± 0.22 |
| AGUUAGCAAUAUUACGCCUU | -0.974 ± 0.23 | -0.383 ± 0.33 |
| AGUUAGCAAUAUUACGCGGA | -0.823 ± 0.29 | -0.581 ± 0.14 |
| AGUUAGCAAUAUUACGCUCA | -1.23 ± 0.16 | -0.21 ± 0.15 |
| AGUUAGCAAUAUUACGCUUC | -2.8 ± 0.18 | – |
| AGUUAGCAAUAUUACGGAAG | -3.57 ± 0.3 | -3.07 ± 0.43 |
| AGUUAGCAAUAUUACGGACU | -3.24 ± 0.28 | -1.03 ± 0.25 |
| AGUUAGCAAUAUUACGGAUA | -2 ± 0.31 | -1.42 ± 0.25 |
| AGUUAGCAAUAUUACGGAUG | -0.996 ± 0.11 | -0.801 ± 0.15 |
| AGUUAGCAAUAUUACGGCGC | -0.53 ± 0.22 | 0.14 ± 0.33 |
| AGUUAGCAAUAUUACGUAAU | -2.56 ± 0.14 | -1.47 ± 0.14 |
| AGUUAGCAAUAUUACGUCCG | -1.32 ± 0.15 | -0.0933 ± 0.19 |
| AGUUAGCAAUAUUACGUCGG | -3.45 ± 0.23 | -1.67 ± 0.16 |
| AGUUAGCAAUAUUACGUCUC | -3.73 ± 0.37 | -2.44 ± 0.36 |
| AGUUAGCAAUAUUACGUGGA | -1.87 ± 0.13 | -1.58 ± 0.12 |
| AGUUAGCAAUAUUACGUUCA | -1.28 ± 0.15 | -0.155 ± 0.16 |
| AUAAAGCAAUAUUACGAAAC | -2.47 ± 0.19 | -1.18 ± 0.32 |

| Sequence | self-splicing fitness (ln) (30 °C) | self-splicing fitness (ln) (37 °C) |
| --- | --- | --- |
| AUAAAGCAAUAUUACGAAAU | -0.905 ± 0.067 | -0.451 ± 0.098 |
| AUAAAGCAAUAUUACGAACU | 0.222 ± 0.095 | 0.227 ± 0.11 |
| AUAAAGCAAUAUUACGAAGU | -1.82 ± 0.088 | -1.01 ± 0.098 |
| AUAAAGCAAUAUUACGACAG | -1.2 ± 0.1 | -1.15 ± 0.12 |
| AUAAAGCAAUAUUACGACCA | -0.122 ± 0.09 | 0.00323 ± 0.12 |
| AUAAAGCAAUAUUACGCAUA | -1.34 ± 0.088 | -0.0324 ± 0.11 |
| AUAAAGCAAUAUUACGCAUG | -0.888 ± 0.073 | -0.405 ± 0.093 |
| AUAAAGCAAUAUUACGCCAC | -1.94 ± 0.38 | – |
| AUAAAGCAAUAUUACGCCGU | 0.151 ± 0.11 | -0.694 ± 0.12 |
| AUAAAGCAAUAUUACGCCUG | 0.243 ± 0.077 | -0.132 ± 0.09 |
| AUAAAGCAAUAUUACGCGCC | -0.37 ± 0.13 | -0.473 ± 0.2 |
| AUAAAGCAAUAUUACGCUCC | -0.366 ± 0.16 | -0.365 ± 0.24 |
| AUAAAGCAAUAUUACGCUUA | -1.27 ± 0.1 | 0.137 ± 0.12 |
| AUAAAGCAAUAUUACGGGCU | -0.992 ± 0.08 | -0.621 ± 0.1 |
| AUAAAGCAAUAUUACGUAUA | -1.91 ± 0.099 | -0.351 ± 0.12 |
| AUAAAGCAAUAUUACGUAUC | -3.77 ± 0.18 | -2.02 ± 0.19 |
| AUAAAGCAAUAUUACGUCAA | -1.54 ± 0.088 | -0.873 ± 0.094 |
| AUAAAGCAAUAUUACGUGGA | -3.9 ± 0.17 | -1.38 ± 0.1 |
| AUAAAGCAAUAUUACGUGGG | -2.92 ± 0.095 | -3.02 ± 0.15 |
| AUAAAGCAAUAUUACGUGUC | -3.44 ± 0.14 | -3.4 ± 0.12 |
| AUAAAGCAAUAUUACGUUAU | -0.793 ± 0.064 | -0.4 ± 0.11 |
| AUAAAGCAAUAUUACGUUGC | -3.81 ± 0.19 | -3.29 ± 0.29 |
